In PMC12933331, “A Cryptic Pocket Allosterically Modulates Oligosaccharide Binding to DC-SIGN” (JACS Au, 2026):

Tests used:
[1] = biological target: T1, DC-SIGN ECD M270F (Homo sapiens, UniProt Q9NNX6, M270F); test: Plate-based horseradish peroxidase assay; format: binding
T1 construct: acids 64 -404 of DC -SIGN; made in house
T1 sequence (Q9NNX6 64-404 M270F): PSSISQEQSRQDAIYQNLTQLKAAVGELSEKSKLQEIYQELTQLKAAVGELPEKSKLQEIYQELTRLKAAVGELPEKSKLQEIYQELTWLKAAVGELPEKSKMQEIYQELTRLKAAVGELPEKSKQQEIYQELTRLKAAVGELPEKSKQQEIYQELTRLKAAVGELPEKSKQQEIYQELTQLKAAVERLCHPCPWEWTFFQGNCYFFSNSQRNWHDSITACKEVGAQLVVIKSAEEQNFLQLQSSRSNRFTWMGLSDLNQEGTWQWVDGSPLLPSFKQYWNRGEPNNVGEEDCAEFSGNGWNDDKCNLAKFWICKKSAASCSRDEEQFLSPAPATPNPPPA
Description: (§1) chromatography. Purified protein was dialyzed against 25 mM HEPES, 150 mM NaCl, 10 mM CaCl2, pH 7.4, concentrated using a centrifugal spin filter, snap frozen and then stored at -80°C. […]
(§2) Plate-based horseradish peroxidase assay
(§3) General remarks. Unless stated otherwise, all reagents and buffers were obtained from Sigma Aldrich or Carl Roth. Measurements were done on a Enspire Multimode Plate Reader (PerkinElmer). GraphPad Prism was used for all data processing and analysis.
(§4) CaCl2 titration. 100 µg mL-1 DC-SIGN ECD were immobilized in immobilization buffer (25 mM HEPES, 150 mM NaCl, 25 mM CaCl 2, pH 7.4) overnight at 4°C on transparent Nunc Maxisorp 96-well plates (Thermo Fisher). Protein solution was removed, and plates were washed three times with immobilization buffer and then blocked for 2 hours at 4°C with blocking buffer (25 mM HEPES, 150 mM NaCl, 25 mM CaCl 2, 2% BSA, 0.01% Tween -20). Plates were washed twice with 25 mM HEPES, 150 mM NaCl, 5 mM EDTA, pH 7.4 and twice with 25 mM HEPES, 150 mM NaCl, pH 7.4 to remove residual Ca 2+. To titrate Ca2+, CaCl2 in 25 mM HEPES, 150 mM NaCl, pH 7.4 was serially diluted on the plate at a constant HRP concentration of 1 µg mL-1 and then incubated at RT for 2 hours. Following incubation, plates were washed three times with 25 mM HEPES, 150 mM NaCl, pH 7.4 and bound HRP was detected using a TMB substrate kit (Thermo Fisher) and 0.18 M H2SO4 according to manufacturer’s instructions. Absorption was […]
(§5) HRP titration. Immobilization and blocking were done as described above. After blocking, plates were washed three times with immobilization buffer. HRP in immobilization buffer was serially diluted on the plate at a constant concentration CaCl2 concentration of 25 mM and then incubated […]
(§6) at RT for 2 hours. Following incubation, plates were washed three times with immobilization buffer and HRP was detected as described above.
(§7) Immobilization and blocking were done as described above. After blocking, plates were washed three times with immobilization buffer. Mannose in immobilization buffer containing 1 µg mL-1 HRP was serially diluted on the plate and then incubated at RT for 2 hours.
(§8) Following incubation, plates were washed three times with immobilization buffer and HRP was detected as described above.
(§9) All conditions were measured in technical triplicates, averaged and normalized to the control well […]
(§10) IC50 and EC50 values and hill […]
(§11) slopes (nH) were obtained in a four-parameter fit according to equation (1).
(§12) Y = bottom + top − bottom (1)
(§13) With bottom and top representing the minimal and maximal response plateaus, respectively, Y as the observed response and X the logarithmic concentration of the ligand . […]
(§14) Biosynth. Spectra were processed in TopSpin 4.2.0 and data analysis was performed using CCPN Analysis 3.2.0 for 2D spectra and in MestreNova for 1D spectra.2 Further analysis was done using GraphPad Prism and in-house python scripts.

[2] = biological target: T2, DC-SIGN ECD wildtype (Homo sapiens, UniProt Q9NNX6); test: Plate-based horseradish peroxidase assay; format: binding; details: saturating CaCl2 (25 mM), plate-immobilized ECD
T2 construct: acids 64 -404 of DC -SIGN; made in house
T2 sequence (Q9NNX6 64-404): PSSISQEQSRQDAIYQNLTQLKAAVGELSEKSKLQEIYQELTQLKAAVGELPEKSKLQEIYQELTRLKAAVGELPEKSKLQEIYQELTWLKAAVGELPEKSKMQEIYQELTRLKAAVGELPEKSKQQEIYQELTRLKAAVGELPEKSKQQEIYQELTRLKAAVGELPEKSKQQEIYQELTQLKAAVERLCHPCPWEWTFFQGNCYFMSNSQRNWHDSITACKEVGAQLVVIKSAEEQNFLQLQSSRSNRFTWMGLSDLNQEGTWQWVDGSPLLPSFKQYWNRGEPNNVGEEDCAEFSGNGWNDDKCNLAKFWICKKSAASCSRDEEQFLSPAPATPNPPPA
Description: as §1, §2, §3, §4, §5, §6, §7, §8, §9, §10, §11, §12, §13, §14

[3] = biological target: T3, DC-SIGN ECD T314A (Homo sapiens, UniProt Q9NNX6, T314A); test: Plate-based horseradish peroxidase assay; format: binding
T3 construct: acids 64 -404 of DC -SIGN; made in house
T3 sequence (Q9NNX6 64-404 T314A): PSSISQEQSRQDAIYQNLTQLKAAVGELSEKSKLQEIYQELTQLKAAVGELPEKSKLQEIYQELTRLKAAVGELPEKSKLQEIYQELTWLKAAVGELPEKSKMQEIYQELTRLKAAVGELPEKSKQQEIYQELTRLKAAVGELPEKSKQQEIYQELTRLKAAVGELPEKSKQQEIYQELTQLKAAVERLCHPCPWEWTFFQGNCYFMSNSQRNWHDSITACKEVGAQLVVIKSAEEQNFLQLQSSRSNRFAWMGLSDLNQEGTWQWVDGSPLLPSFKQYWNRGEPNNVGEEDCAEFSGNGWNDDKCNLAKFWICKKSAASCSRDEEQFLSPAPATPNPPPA

[4] = biological target: the molecule itself; test: dynamic light scattering; purified ECDs; tetrameric state judged from mannan affinity chromatography, DLS and DSF together
[5] = HRP titration at saturating CaCl2
[6] = saturating CaCl2 (25 mM), plate-immobilized ECD

| Molecule | increased affinity compared to the wildtype [1, 5] [fold] | EC50 (mean ± SD), HRP titration [1, 6] [μg mL^–1] | EC50 (mean ± SD), HRP titration [2] [µg/mL] | decreased affinity compared to the wildtype [3, 5] [fold] | EC50 (mean ± SD), HRP titration [3, 6] [μg mL^–1] | stoichiometry N [4] |
| --- | --- | --- | --- | --- | --- | --- |
| horseradish peroxidase [HRP] | 10 | 0.2 ± 0.2 | 1.8 ± 1.0 | 4 | 8.6 ± 0.1 |  |
| DC-SIGN extracellular domain (ECD) M270F (receptor, UniProt Q9NNX6 59-404, looked up, DC-SIGN (CD209), extracellular domain with the point mutation M270F) QVSKVPSSISQEQSRQDAIYQNLTQLKAAVGELSEKSKLQEIYQELTQLKAAVGELPEKSKLQEIYQELTRLKAAVGELPEKSKLQEIYQELTWLKAAVGELPEKSKMQEIYQELTRLKAAVGELPEKSKQQEIYQELTRLKAAVGELPEKSKQQEIYQELTRLKAAVGELPEKSKQQEIYQELTQLKAAVERLCHPCPWEWTFFQGNCYFFSNSQRNWHDSITACKEVGAQLVVIKSAEEQNFLQLQSSRSNRFTWMGLSDLNQEGTWQWVDGSPLLPSFKQYWNRGEPNNVGEEDCAEFSGNGWNDDKCNLAKFWICKKSAASCSRDEEQFLSPAPATPNPPPA |  |  |  |  |  | 4 |
| DC-SIGN extracellular domain (ECD) T314A (receptor, UniProt Q9NNX6 59-404, looked up, DC-SIGN (CD209), extracellular domain with the point mutation T314A) QVSKVPSSISQEQSRQDAIYQNLTQLKAAVGELSEKSKLQEIYQELTQLKAAVGELPEKSKLQEIYQELTRLKAAVGELPEKSKLQEIYQELTWLKAAVGELPEKSKMQEIYQELTRLKAAVGELPEKSKQQEIYQELTRLKAAVGELPEKSKQQEIYQELTRLKAAVGELPEKSKQQEIYQELTQLKAAVERLCHPCPWEWTFFQGNCYFMSNSQRNWHDSITACKEVGAQLVVIKSAEEQNFLQLQSSRSNRFAWMGLSDLNQEGTWQWVDGSPLLPSFKQYWNRGEPNNVGEEDCAEFSGNGWNDDKCNLAKFWICKKSAASCSRDEEQFLSPAPATPNPPPA |  |  |  |  |  | 4 |
